Source: article doi:10.1101/2024.04.26.591398

Target: T1, FITC-casein
T1 sequence (P02666 16-224, species assumed, looked up): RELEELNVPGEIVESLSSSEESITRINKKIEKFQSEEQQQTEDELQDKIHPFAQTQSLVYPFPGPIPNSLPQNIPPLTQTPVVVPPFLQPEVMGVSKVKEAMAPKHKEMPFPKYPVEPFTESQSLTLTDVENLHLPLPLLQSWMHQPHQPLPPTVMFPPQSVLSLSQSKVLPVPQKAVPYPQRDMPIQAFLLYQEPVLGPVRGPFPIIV
Experiment: fluorescence polarisation

Ydj1, sequence (P25491 whole entry): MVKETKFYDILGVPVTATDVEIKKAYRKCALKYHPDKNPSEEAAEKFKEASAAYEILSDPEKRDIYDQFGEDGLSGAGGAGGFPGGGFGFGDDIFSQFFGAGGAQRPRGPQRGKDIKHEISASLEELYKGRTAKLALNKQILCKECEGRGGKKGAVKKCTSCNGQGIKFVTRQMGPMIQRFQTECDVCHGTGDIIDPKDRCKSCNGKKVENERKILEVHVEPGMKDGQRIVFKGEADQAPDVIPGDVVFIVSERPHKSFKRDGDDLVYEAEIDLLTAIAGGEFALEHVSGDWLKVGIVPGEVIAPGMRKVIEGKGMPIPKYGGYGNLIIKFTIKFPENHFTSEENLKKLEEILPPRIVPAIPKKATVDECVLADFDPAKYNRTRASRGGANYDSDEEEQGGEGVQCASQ
Hsp104, sequence (P31539 whole entry): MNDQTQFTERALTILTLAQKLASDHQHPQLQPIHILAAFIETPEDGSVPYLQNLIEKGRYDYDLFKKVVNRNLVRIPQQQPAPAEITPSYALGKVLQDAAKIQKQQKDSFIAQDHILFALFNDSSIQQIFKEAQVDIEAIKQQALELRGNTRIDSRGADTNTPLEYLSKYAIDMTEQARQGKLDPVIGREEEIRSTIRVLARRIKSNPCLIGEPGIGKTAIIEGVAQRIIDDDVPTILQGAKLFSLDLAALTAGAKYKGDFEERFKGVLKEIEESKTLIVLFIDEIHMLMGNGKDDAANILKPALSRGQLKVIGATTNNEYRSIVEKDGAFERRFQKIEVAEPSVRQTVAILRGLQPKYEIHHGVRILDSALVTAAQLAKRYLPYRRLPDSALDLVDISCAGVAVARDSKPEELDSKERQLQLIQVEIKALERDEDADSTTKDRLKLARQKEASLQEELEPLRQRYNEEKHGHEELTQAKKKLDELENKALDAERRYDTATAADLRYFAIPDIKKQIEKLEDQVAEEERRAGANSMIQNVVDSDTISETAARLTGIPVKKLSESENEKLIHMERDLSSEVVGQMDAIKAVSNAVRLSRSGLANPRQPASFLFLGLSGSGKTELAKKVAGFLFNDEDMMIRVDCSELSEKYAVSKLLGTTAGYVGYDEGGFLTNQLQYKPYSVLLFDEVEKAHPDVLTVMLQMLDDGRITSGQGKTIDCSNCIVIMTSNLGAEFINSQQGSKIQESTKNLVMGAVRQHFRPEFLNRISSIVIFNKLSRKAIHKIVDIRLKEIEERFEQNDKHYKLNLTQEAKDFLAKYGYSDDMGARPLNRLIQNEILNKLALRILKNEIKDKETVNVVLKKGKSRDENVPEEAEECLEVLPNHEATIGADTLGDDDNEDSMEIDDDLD

Row | Substance | Kd | IC50
1 | Hsp104 (from UniProt P31539 1-908) (natural protein) | 0.2 µM | –
2 | Ydj1 (from UniProt P25491 1-409) (natural protein) | – | 20 to 40 µM
